Source: patent CN111748039A

Biological target: 重组CEA蛋白 (UniProt P06731)
UniProt P06731, sequence (P06731 35-685 limits assumed): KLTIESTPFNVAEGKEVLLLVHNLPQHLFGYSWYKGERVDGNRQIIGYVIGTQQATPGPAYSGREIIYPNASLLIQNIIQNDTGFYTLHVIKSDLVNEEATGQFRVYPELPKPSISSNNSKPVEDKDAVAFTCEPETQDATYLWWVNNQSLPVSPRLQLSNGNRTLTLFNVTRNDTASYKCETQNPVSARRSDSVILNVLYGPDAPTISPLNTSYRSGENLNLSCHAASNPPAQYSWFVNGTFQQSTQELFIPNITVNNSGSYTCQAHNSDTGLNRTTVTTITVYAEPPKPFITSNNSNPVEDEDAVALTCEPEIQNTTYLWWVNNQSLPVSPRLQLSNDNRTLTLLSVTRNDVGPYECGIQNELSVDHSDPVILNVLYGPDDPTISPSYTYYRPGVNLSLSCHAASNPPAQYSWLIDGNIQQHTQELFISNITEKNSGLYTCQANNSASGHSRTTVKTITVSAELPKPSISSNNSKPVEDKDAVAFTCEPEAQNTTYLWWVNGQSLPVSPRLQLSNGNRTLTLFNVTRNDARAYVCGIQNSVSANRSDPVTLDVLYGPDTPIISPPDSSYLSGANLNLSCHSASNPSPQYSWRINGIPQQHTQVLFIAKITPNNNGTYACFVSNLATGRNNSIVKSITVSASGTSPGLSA

B1: 1#单抗 (antibody, mouse IgG1, kappa, V domains shown)
VH: QIQLVQSGPELKKPGETVKISCKTSGYTFTNYAMNWVKQAPGKGLKWMGWINTNTGEPTYAEEFKGRFAFSLETSATAAYLQINNLKNDDTASYFCARGWVLYAMDYWGQGTSVTVSS
VL: DIQMTQTTSSLSASLGDRVTISCRASQDISNYLNWYQQKSDGTVKLLIYYTSRLHSGVPSRFSGSGSGTDYSLTISNLDPEDVATYFCQQGDMFMFGGGTKLEIRT
Binder B1 has a 效价 (titer) of 100000.
